The record followed here is the DeepSol protein solubility set.

The nature of the data set: soluble on expression in E. coli; label from the status in PepcDB or PDB records.
Take “MKESLLTLTEKIMFTTTVLKPTITTPITMLITTMRTLVAMKIRHYWKMMAIKDRKIQIPPVKYQMELSIRTLEINLLKNVKETEANLLKRRTDRENKRHYEFGFFYNLRIHNIYIPTSFFFFNSIV”: the “soluble on expression in E. coli” value was “soluble”.

“GPGSMTPTRAQLAAFVDHTLLKPEATAADVAALVTEAAELGVYAVCVSPPMVPAAVQAGAGVRVASVAGFPSGKHVSAVKAHEAALAVASGAAEIDMVIDVGAALAGDLDGVRADIAAVRGAVGGAVLKVIVESSALLALADEHTLVRVCRAAEDAGADFVKTSTGFHPSGGASVRAVALMAEAVGGRLGVKASGGIRTAADALAMLDAGATRLGLSGTRAVLDGLG”: the “soluble on expression in E. coli” value is on record as “soluble”. With “DDLIEGYLSSEEYYHEESARYIQKFSKYVSENELSTSDRKAFGEWVKKENYINLTIFKDQELQYDSIYSESDYGKEKLTQYAQNHSHPVKFSDGEGRVIIDGFYSSRYYD” the entry was “not soluble”.

As for “GMANKVEHRLSEQQMKALTDLPLVFLITHDQSKSWPITHAISWVYAKDETTIRFAIEADSLLVKTLADHPVFTLIFFADQSTYSLTCTDVAAWETTARLPLKVALYEGQIKEVRDILFYGAAVSDRPRVYKTYDEAAAMQLDQQIQDILKG”, the “soluble on expression in E. coli” value is on record as “soluble”. With “MSKELFLEIGTEEIPAGFLPKAMADMEAIVTKELENARLAFGEVKTFATPRRLALVVKGLPTVQPDAEITALGPARNIAFGPDGTPSKAAEGFARGQGVDVASLTLVSTEKGEYVAAVRKESGRPVPDLLAEILPRLVGGIPFRKSMRWADLDVRFARPIHWIVALFDGVVVPFAFGNVQSGNVSRGHRFMANQPFPVRDFAHYLDECERHFVIPDPERRKETIRREIHRVAKTAGGHLLPDEGLLDEVAYLVEYPSVVHGTFSPDFLKVPREVLITSMRSHQRYFSIVDDAGKLMPGFITINNTLTEDPSVVVKGNERVLRARLSDARFFFEEDQKVKLETRVESLKNVVYQQKLGTSYEKMERFRALAEGLADLLNPAVKAKTSRAAFLCKADLVSGMVGEFPEVQGIMGREYALLQGEDAEVAAAIAEHYLPTQAGGDLPASDIGAFVSIADKLDTICGCFGVGLIPTGSADPYALRRSALGIINIILDRGCRLSLEGEIGKALELLSAKLTRPAAEVMADVLEFFRGRFVNLMADRYPADAVDAAIAAGFDD” the entry was “not soluble”; with “MSLTKEEMRNAILDIFQSNPQSVMNYKQVSHLMGVEAAPQKLMVNSLMEDMAVDDILHEIERGRYRYNALGLIVIGTFERRFNGRNSFIPEGGGTPIFIAERNSAHAMDGDKVKVQLFAKRRGRAPEAAVIEIIEQKQATFVGKIQINRDFAFLVTEDRTLANDIFIPKDNLGNAKNGDKVIVRILEWPEQSKNPIGEVQAVLGPAGDNDAEMNAILAEFGLPYVYPQEVEEAADRLDGKITEEELARREDFRSILTFTIDPKDAKDFDDAISFRPLEDDCYEVGVHIADVSHYVTEGGIIDQEAYNRATSIYLVDRTIPMLPERLCNDLCSLRPDEEKYAYSCIFRMNDEAKVLDYRICHSVIKSDRRFAYEEAQAVIETGEGDCKEAILKLNELAQRLRKERFQNGAIAFERKEVRFEIDEKGRPLGVIVKESKEANKLIEEFMLLANRTVARHIGEETQGKRAKTFVYRIHDLPDPDKLETLSDFIRRFGYKLRTTGSNVEVSKSINSLLDNIQNKPEENLISTVAIRSMAKAIYSTDNIGHYGLAFDFYTHFTSPIRRYPDLMVHRLLTKYLSGGSSVDKNDYEEKCKHSSAMEQLAASAERASIKYKQVEFMSEHLGKVFDGVISGVTEWGLYVELKENMCEGLIPIRCLDDDYYEYDDKNFCLIGRRYRHRYSLGDAITVRVAQANLDRKQLDFEPVSEGHHHHHH”, “soluble”. In the case of “MSALEWYAHKSLGDGIFWIQERFYESGNRANIWLVRGSEQDVVIDTGLGLRSLPEYLYSSGLLQDREAKEDAARRPLLAVATHVHFDHSGGLYQFDRVAVHHAEAEALARGDNFETVTWLSDSEVVRAPSPGWRARQFRVQAVQPTLILQDGDVINLGDRQLTVMHMPGHSRGSICLHDKDRKILFSGDVVYDGSLIDWLPYSRISDYVGTCERLIELVDRGLVEKVLPGHFNTFGAERLFRLASNYISKAGICHKVSTFAMRSLASLALRVTNSRTSP” it was “not soluble”. With “MTFMKLYFFGDDNNKPKLSEHLIIYILSLLDPKSQSVASLVNKDWSRLVQLTRQYLSMLPVIHRIPLFANLGLDVLKLKLMTGGMTNSTVRLRIKNAPEKWVMRIPGIGSSAFITRRDEAHNAKQAEKLGLNVPIAFFDPEDGLQVTRFIEGVHSLDDKALARKEILHEVASMMRRLHKSPPFDNNTLFFERNEELLDLLKRKPFNFPGEIEFVEQQMKNLKEIFSSYHIQQFPCHNDTTPLNFILSENPEIKGSEKIHQIDWEYSSNNDFIWDLVYFMVEAKLNREQQLILLKAYFNTEELSDSLLAWIEVYKPIIEWWITIWSWTQLANGANAVDLSSYEQLGLERYHNTLSHLKSEDYVKALALIEADSHSLTFTGQRPF” the entry was “not soluble”. On to “AKTEQQIADIVNRTITPLMQEQAIPGMAVAIIYEGKPYYFTWGKADIANNHPVTQQTLFELGSVSKTFNGVLGGDAIARGEIKLSDPVTKYWPELTGKQWRGISLLHLATYTAGGLPLQIPDDITDKAALLRFYQNWQPQWTPGAKRLYANSSIGLFGALAVKPSGMSYEEAMTRRVLQPLKLAHTWITVPQSEQKNYAWGYREGKPVHVSPGQLDAEAYGVKSSVIDMARWVQANMDASHVQEKTLQQGIELAQSRYWRIGDMYQGLGWEMLNWPLKADSIINGSDSKVALAALPAVEVNPPVPAVKASWVHKTGSTGGFGSYVAFVPEKNLGIVMLANKSYPNPVRVEAAWRILEKLQ”, for which the “soluble on expression in E. coli” value is “soluble”. With “MIQRNSTLAVLRESFVAGSDENLSPIMHHLWKMEGGAIYFCRSGWAHVTIDLKEYEIVKNTQVVLLPGSIIRINGSSSDFTASFFGFPKDMFREACLRLEPTFFRFMKEKPCYVLPDKDTGAINGLIQATTAIYNDRENRFRNQIAKNHLQSFMLDIYDKCYRYFDKQEIEGGSRQDEIFKKFVALVHENCISQREVNFYANELCISTKYLTGICRSVTGDSAKKIIDDFAILEIKVLLQSTELTMQDIADRLGFPDQSYLGRYFKRHEGMSPREYQNRYVI” the entry was “not soluble”.

“MGSDKIHHHHHHMKSELFYRKLEKCDLCPRNCGVNRLMGEKGACGVANSPVVSSWGPHFGEERILVGRGGSGTVFFTYCNLKCVYCQNYEISQLGIGKEITVEDLLRIFTELQDMGVENLNLVTPTHQIPFIVDAFERMEKEIPVVYNCGGYESVDTIISLEGFVDIYMPDFKYSDPELGEKLSGVKDYPRFALEALKVMIDQMGEPVIRNGVMKKGVLVRHLVLPGFLEDSFGVIDLLSTLEPKPLVNIMAQFYPAYRAKEYGLDRFITRDEYLKVVEYAKKKKLNLIEVERWLRWL”: the “soluble on expression in E. coli” value is reported as “not soluble”. In the case of “MGSDKIHHHHHHMAEQQKTAAATAEAEAIDLGEFSGLLEKDFKVKKDDSEKLQQLVRNLALAAQSRSETTTISSNAIKSIKSLIAGIDKMLTTQVNEILHAPEVREMEGTWRGLWYLINNTETDTKLKIRVMNISKEQLADTLEDYEGQMWDQSPIFKKVYTDEYSMLGGEPIGCIIGAYEFSNHPRDVGLLRNISGVCASAHTPFIAAASPRLFRMDSWQELPNPQDLQMIVNNPAYASWQSLRESEDARYIGLTMPRVLARLPYGSETVPVKGFTFEEEVGGDHNKYVWMNAAFPMGVNINRSHKLYGWGTQIRGVENGGTVLNLPVHAFPTDDGSIAMKCPTEVAIDDRREAELAKLGLMPILHRKNTDLAAFIGAHSLQDDETRAGRLVDPDAQSNERLSANLPYLFPVSRFAHYLKAIARDKIGSFKERTDMEIWLTEWINRYVLANPAFADDKARAKRPLAAAEVQVDSVEGRPGYYNARFYLRPHYQLEGINASLRLVSELPSVKG” it was “not soluble”; in that of “SGIVVSPILIPENQRQPFPRDVGKVVDSDRPEGSKFRLTGKGVDQDPKGTFRINENTGSVSVTRTLDRETIATYQLYVETTDASGKTLEGPVPLEVIVID”, “soluble”. For the sequence “MKLLQKQQQQGGGDNQDQNKENNHDKKQPQNNPNNNNQGGQQQPQPSKQDNTQKDQQPRQNEMSRESAEKILKAYEQDEEKTREKVEQMRKQRMKQQKGNSTKQW”, the “soluble on expression in E. coli” value was “not soluble”. Consider “MSCEIVVYPAQDSTTTNIQDISIKNYFKKYGEISHFEAFNDPNSALPLHVYLIKYASSDGKINDAAKAAFSAVRKHESSGCFIMGFKFEVILNKHSILNNIISKFVEINVKKLQKLQENLKKAKEKEAENHHHHHH”, for which the “soluble on expression in E. coli” value is “soluble”.
